According to the nanobody polyreactivity screen of Harvey et al. (2022):

Assay: yeast display, Sf9 membrane polyspecificity reagent, FACS + sequencing; frameworks hold sequencing errors
Method in brief: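 Genes from sorted yeast were amplified by colony PCR, read by MiSeq 2 × 250 sequencing and filtered on CDR length. These cells carried a synthetic nanobody library in Saccharomyces cerevisiae BJ5465 and were sorted by FACS into low and high (top ~1%) gates on anti-HA and streptavidin fluorescence. Polyreactivity is labelled according to the gate of origin.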

With “QVQLVESGGGLVQAGGSLRLSCAASGSIFRWYAMGWSRQAPGKEREFVAAITSSGGSTYYADSVKGRFTISRDNAKNTVYLQMNSLKPEDTAVYYCNRRYQPYSYDYWGQGTQVTVSS” the “polyreactivity (PSR sort gate)” value was “high polyreactivity”.

In the case of “QVQLVESGGGLVHAGGSLRLSCAASGSIFEGYAMGWSRQAPGKERELVAAISRSGGSTYYADSVKGRFTISRDNAKNSVYLQINRLTPEATAVYYCAARKAIDYQGRHDHWGQGTQVTVSS”, the “polyreactivity (PSR sort gate)” value is reported as “low polyreactivity”.

With “QVHLVESGGGLVQAGGSLRLSSDASGSTFHPYAMGLYRQAPGKERELVAAISWTGGRTYYADSVKGRFTISRDYAKNTVYLQMNRLKREDTAVYYCAARTYGKVGYWGQGTQVTVSS” the “polyreactivity (PSR sort gate)” value was “high polyreactivity”.

For “QVQLVESGGGLVQAGGSLRLSCAASGLTFRRYTMGWYRQAPGKERECVAAIRTSGGSTSYADSVKGRFTISRDNAKNTVYLQMNSLKPEDTAVYYCAADYGGTSYVRGTVGRKYDYWGQGTQVTVSS”, the “polyreactivity (PSR sort gate)” value was “high polyreactivity”.

With “QVQLVESGGGLVQAGGSLRLSCAPSGSIFRKYAMGRYRQAPGKERELVAAIRSSGGSTYYADSVKGRFTISRDKAKNSVYFQLNSLKPEDTAVYYCAARYYRPSRYDYWGQGTQVTVSS” the “polyreactivity (PSR sort gate)” value was “high polyreactivity”.

In the case of “QVQLVESGGGLVQAGGSLRLSCAASGFTLWGYAMGWYRQAPGKERELVATISWSGGGTNYADSVKGRFTISRDNAKNTVYLQMNSLKPEDTAVYYCAAGQGSRNQYYYWGQGTQVTVSS”, the “polyreactivity (PSR sort gate)” value is reported as “high polyreactivity”.

With “QVQLVESGGGLVQAGASLRLSCAASGRTLGYYAMGWSRQEPGKERELVAAISRSGGSTYYADSVKGRFTISRDNAKNTVYLQINSLKPEDTAVYYCAATYGPSRYRYDYWGQGTQVTVSS” the “polyreactivity (PSR sort gate)” value was “high polyreactivity”.

For “QVQLVESGGGLVQAGGSLRLSCAASGFIFFINDMGWYRQAPGKERELVAAISWSGGSTYYADSVKGRFTISRDNAKNTVYLQMNSLKPEDTAVYYCAADWLIYDLSRFDYWGQGTQVTVSS”, the “polyreactivity (PSR sort gate)” value was “low polyreactivity”.

With “QVQLVESGGGLVQAGGSLRLSCAASGSIFISYVMGWYRQAPAKERELVASISWSGGSTYYADSVKGRFTISRDNAKNTVYLQMNSLKPEDTAVYYCAADRLVRIRSYRDLGYWGQGTQVTVSS” the “polyreactivity (PSR sort gate)” value was “high polyreactivity”.

With “QVQLVESGGGLVQAGGSLRLSCAASGFIFYHNAMGWYRQAPGKERELVAVISSGGSTYYADSVKGRFTISRDNAKNTVYLQMNSLKPEDTAVYYCAALYYGWSGSYAMDYWGQGTQVTVSS” the “polyreactivity (PSR sort gate)” value was “high polyreactivity”.

With “QVQLVESGGGLVQAGGSLRLSCAASGLTFGFNAMGWYRQAPGKERELVAAISSRGGSTYYADSVKGRFTISRDNAKNTVYLQMNSLKPEDTAVYYCNARSVYDGFWYNYWGQGTQVTVSS” the “polyreactivity (PSR sort gate)” value was “low polyreactivity”.

In the case of “QVQLVESGGVLVQAGGSLRLSCAASGSIFEVNSMGWYRQAPGKERELVDTITYSGGSTYYADSVKGRFTLSRDNAKNNVYLQMNSLKPEDTAVYYCATDYVDWELYIYDYWGQGTQVTVSS”, the “polyreactivity (PSR sort gate)” value is reported as “low polyreactivity”.

In the case of “QVQLVESGGGLVQAGGSLRLSCAASGRTFSVNDMGRYRQAPGKEREMVAAISFSGGSTYYADSVKGRFTISRDDAKNTVYLQMNSLKPEDTAVYYCAAEAYPSWFYVITGFGIYDYWGQGTQVTVSS”, the “polyreactivity (PSR sort gate)” value is reported as “high polyreactivity”.

With “QVQLVESWGGLVQAGGSLRLSCAASGLIFKVYAMGWYRQAPGKERELVAAITYSGGSTDYADSVKGRFTISRDNAKNTVYLQMNSLKPEDTAVYYCNVEKVGHVNSYGYDYWGQGTQVTVSS” the “polyreactivity (PSR sort gate)” value was “low polyreactivity”.

For “QVQLVESRGGLVQAGGSLRLSCAASGRIFHYYVMGWYRQAPGKERELVARITFNGGGTYYADSVKGRFTISRDIAKNTVYLQMNRLKPEDTAVYYCNARYPWRDWEDDYWGQGTQVTVSS”, the “polyreactivity (PSR sort gate)” value was “low polyreactivity”.

For “QVQLVESGGGLVQEGGSLRLSCAASGSIFTLYFMGWYRQAPGKERELVAAITWSGGSTYYADSVKGRFTISRDNAKNTVYLQMNSLKTEVTAVYYCNADVRWDSQDYYYWGQGTQVTVSS”, the “polyreactivity (PSR sort gate)” value was “low polyreactivity”.

With “QDQLVESGGGLVQAGCSLRLSCAASGFIFPNYAMGWYRQAPGKERELVAAISTDGSTNYADSVKGRFTISRDNAKTTVYLQMNSLKTEDTAVYYCAKYGRVKPQRYDYDYWGQGTQVTVSS” the “polyreactivity (PSR sort gate)” value was “high polyreactivity”.

For “QVQLVESGGGLVQAGGSLRLSCAASGLIFYDNMGWYRQAPGKERELVAAISSSGGSTSYADSVKGRFTISRDNAKNTVYLQMNSLKPEDTAVYDSAADSYPAYLGFVGFDYWGQGTQVTVSS”, the “polyreactivity (PSR sort gate)” value was “low polyreactivity”.

In the case of “HGQLVESGGGLVQAGGSLRLSCAASGRTFRYYAMGWYREAPGKERELVAAITGSGGSTYYADSVKGRFTISRDNAQNTVYLQMNSLKPEDTAVYYCATRWALRWRGGYWGQGTQVTVSS”, the “polyreactivity (PSR sort gate)” value is reported as “high polyreactivity”.

For “QVQLVESGGGLVQAGGSLRLSCAASGFTFEGNAMGWYRQAPGKEREFVAAITSNGGGTYYADSVKGRFTISRDNAKNTVYLQMNSLKPEDTAVYDCAATYWTWYSWYDYWGQGTQVTVSS”, the “polyreactivity (PSR sort gate)” value was “high polyreactivity”.

In the case of “QVQLVESGGGLVQAGGSLRLSCAASGRTLYPYAMGWYRQAPGKERELVAAISSTGGRTYYADSVKGRFTISRDNAKNTVYLQMNSLKPEDTAVYYCAAIYRAQYDYWGQGTQVTVSS”, the “polyreactivity (PSR sort gate)” value is reported as “high polyreactivity”.

With “QVQLVESGGGLVQAGGSLRLSCAASGFIFSYYTMGWYRQAPGKERELVAAISRRGGSTYYADSVKGRFTISRDNAKNTVYLQMNSLKPEDTAVYYCAAPRDWDAGDYWGQGTQVTVSS” the “polyreactivity (PSR sort gate)” value was “high polyreactivity”.

With “QVQLVESGGGLVQAGGSLRLSCAASGITFVWNAMGWYRQAPGKERELVATISRGGVRTYYADSVKGRFTISRDNAKNTVYLQMNSLKPEDTAVYYCNKRYWYPSSLHWTSFRGYDYWGQGTQVTVSS” the “polyreactivity (PSR sort gate)” value was “low polyreactivity”.

For “QVQLVESGGGLVQAGGSLRLSCAASGYIFWKNAMGWYRQAPGKERELVAGITIRGGRTYYADSVKGRFTISRDNAKNTVYLQMNSLKPEDTAVYYCNALYDYYDPYGSWGQGTQVTVSS”, the “polyreactivity (PSR sort gate)” value was “high polyreactivity”.

In the case of “QVQLVESGGGLVQAGGSLRLSCAASGITFAYYAMGWYRQAPGKERELVAAIRWSGGDTYYADSVKGRFTISRDNAKNTVYLQMNSLKPEDTAVYYCAADTTWGYDYWGQGTQVTVSS”, the “polyreactivity (PSR sort gate)” value is reported as “low polyreactivity”.

In the case of “QVQLVESGGGLVQAGGSLRLSCADSGRNFYIYAMGWYRKAPGKERELVAAISISGSTYYADSVKGRFTISRDNAKNTVFLQMNSLKPEDTAVYYCAARDPGVAVGAAFDSWGQGTQVTVSS”, the “polyreactivity (PSR sort gate)” value is reported as “low polyreactivity”.

For “QVQLVESGGGLVQAGGSLRLSCAASGFTISAYAMGWYRQAPGKERELVAAITSGGGSTRYADSVKGRFTISRDNAKNTVYLQMNSLKPEDTAVYYCAARNHRYKFNYWGQGTQVTVSS”, the “polyreactivity (PSR sort gate)” value was “high polyreactivity”.

In the case of “QVQLVESGGGLVQAGGSLRFSCADSGRILSLYAMGWSRQAPGKERELVASINWSDGSTYYADSVKGRFTISRDKAKNTVYLQMNSLKPEDTAVYYCNVDVRSYVAGYDYWGQGTLVTVSS”, the “polyreactivity (PSR sort gate)” value is reported as “low polyreactivity”.

With “QVQLVESGGGLVQAGGSLRLSCAASGFTFGKYGMGWYRQAPGKERELVAAISASGGITYYADSVKGRFTISRDNAKNTVYLQMNSLKPEDTAVYYCAVRRRYGAFISYDYWGQGTQVTVSS” the “polyreactivity (PSR sort gate)” value was “high polyreactivity”.

For “QVQLVESGGGLVQAGGSLRLSCADSGRTFYHDTMGWYRQAPGKERELVARITRRVGSTYYADSVKGRFTISRDNAKNTVYLQMNSLKPEDTAVYYCNAKSGLYRYLLDYWGQGTQVTVSS”, the “polyreactivity (PSR sort gate)” value was “high polyreactivity”.

With “QVQLVESGGGLVQAGGTLRLSCSASGRTFYSYAMGWYRQAPGKERELVAAISYTGASTFYADSVKGRFTISRDNAKNTVYLQMNSLIPEDTAVYYCAAESQPSYGETDEYWGQGTQVTVSS” the “polyreactivity (PSR sort gate)” value was “high polyreactivity”.

With “QVQLVESGGGLVQAGGILRLSCAASGFIFSSNAMGWYRQAPGKERELVAAITSSGGGTYYADSVKGRFTISRDNAKNTVYLQMNSLKPEDTAVYYCNAAYKYAIPSYGYWGQGTQVTVSS” the “polyreactivity (PSR sort gate)” value was “low polyreactivity”.

With “QVQLVESGGGLVQAGGTLRLSCAASGFNFASYAMGWYRQAPGKERELVDAITSDGSTNYADSVKGRFTISRDNAKNTVYLQMNSLKPEDTAVYYCAADPAKKYDQNTEYEYWGQGTQVTLSS” the “polyreactivity (PSR sort gate)” value was “low polyreactivity”.

With “QVQLVESGGGLVQAGGSLRLSCAASGNIFAWYAMGWYRQAPGKERELVADISSRGGSTYYADSVKGRFTISRDNAKNTVYLQMNSLKPEDTAVYYCAAVWYWTQDYDYWGRGTQVTVSS” the “polyreactivity (PSR sort gate)” value was “low polyreactivity”.

In the case of “QVQLVESGGGLVQAGGSLRLSCVASGFTFIRYAMGWYRQAPGKERELVASITRGGSTYYADSVKGRFTISRDNAKYTVYLQMNSLKPEDTAVYYCATTSYYGYDYWGQGTQVTVSS”, the “polyreactivity (PSR sort gate)” value is reported as “high polyreactivity”.

For “QVQLVESGGGLVQAGGSLRLSCAASGFTLYYYAMGWYRQAPGKERELVAAIRSGGRTYYADSVKGRFTISRDNAKNTVYLQMNSLKPEDTAVYYCAARYRVYRGSRGITDYGYWGQGTQVTVSS”, the “polyreactivity (PSR sort gate)” value was “high polyreactivity”.

For “QVQHVESGGGLVQAGGSLRLSCAASGSIIVRYAMGWYRQAPGKERELVASISKRGGSTYYADSVKGRFTISRDNAKNTVYLQMKSLKPDDTAVYYCAAVGYYLVKFDYWGQGTQVTVSS”, the “polyreactivity (PSR sort gate)” value was “high polyreactivity”.

In the case of “QVQLVESGRGLVQAGGSLRISCAASGLILYTYAMGWYRQAPGKERELVAAITKSGGRTYYADSVKGRFTISRDNAKNTVYLQMNSLKPEDTAVYDCAARPYSRPYSFGFYYWGQGTQVTVSS”, the “polyreactivity (PSR sort gate)” value is reported as “high polyreactivity”.

In the case of “QVQLVESGGGLVQAGGSLRLSCAASGLIFYGNAMGWYRKAPGKERELVAAISWSGGNTSYADSVKGRFTISRDNAKNTVYVLMNSLKAEDTAVDYCNADSLPSLERYGYWGQGTQVTVSS”, the “polyreactivity (PSR sort gate)” value is reported as “low polyreactivity”.

In the case of “QVQLVESGGGLVQAGGSLRLSCAASGSISKINAMGWYRQAPWKERELVAAINTGDSTYYADSVKGRFTISRDNAKNTVYLLMNSLKPEDTAVYYCAAECSPTGYDYWGQGTQVTVSS”, the “polyreactivity (PSR sort gate)” value is reported as “low polyreactivity”.

With “QVQLVESGGGLVQAGGSLRLSCAASGSIFAKYAMGWYRQAPGKDREFVAAIRASGGRTYYADSVKGRFTISRDTAKNTVYLQMNSLKPEDSAVYYCNARKYLIPKMDYWGQGTQVTVSS” the “polyreactivity (PSR sort gate)” value was “high polyreactivity”.

With “QVQLVESGGGLVQAGGSLRLSCAASGPTFGVNAMGWYRQAPGKERELVAVISSTGSTNYADSVKGRFTISRDNAKNTVYLQMNSLKPEDTAVYYCAVGPNSVGNRSYGFDYWGQGTQVTVSS” the “polyreactivity (PSR sort gate)” value was “low polyreactivity”.

With “QVQLVESGGGLVQAGGSLRLSCAASGRTFGYYTMGWYRQAPGKERELVAAITSSGGSTYYADSVKGRFTISRDNAKNTVYLQMNSLKPEDTAVDYCAARAAYYFLYSAMYYWGQGTQVTVSS” the “polyreactivity (PSR sort gate)” value was “high polyreactivity”.
